The source of these data is patent US20170189519A1.

The target in experiment [1] is H1-mini2-cluster1+5+6-GCN4 without leader sequence and with FLAG-thrombin-foldon-HIS. In words: ELISA, coated CR6261, HEK293F culture medium; the reference itself. In general terms: An ELISA detects its analyte on a solid surface through an enzyme-linked reagent.
The target is the same in experiment [2]. As to the kind of experiment: ELISA, coated CR6261, HEK293F culture medium; average of the parental.
The target is the same in experiment [3]. In words: ELISA, coated CR6261, P. pastoris culture medium; the reference itself.
Experiment [4] shares this target. As to the kind of experiment: ELISA, coated CR6261, P. pastoris culture medium; average of the parental.

On to CR6261 (antibody), for which the fold increase of ratio over parental SEQ ID NO: 6 in experiment [1] and in experiment [3] was 1 fold each time. Also, the CR6261 binding signal turned out to be 5.66e+06 in experiment [2] and 238000 in experiment [4]. Besides, the values for the ratio of CR6261 binding signal to HTRF signal in experiment [2] and in experiment [4] were 17.4 and 5.94, respectively.
